This test addresses cell adhesion mediating proteins (CAMP), e.g. integrins, on the cells of the pig skin. The test can be described thus: cell-based or functional assay.

B1: C16spRGD (eADF4 (C16) genetically fused at the C-terminus to the tag spRGD, …) (protein)
chain: MASMTGGQQMGRGSMGSSAAAAAAAASGPGGYGPENQGPSGPGGYGPGGPGSSAAAAAAAASGPGGYGPENQGPSGPGGYGPGGPGSSAAAAAAAASGPGGYGPENQGPSGPGGYGPGGPGSSAAAAAAAASGPGGYGPENQGPSGPGGYGPGGPGSSAAAAAAAASGPGGYGPENQGPSGPGGYGPGGPGSSAAAAAAAASGPGGYGPENQGPSGPGGYGPGGPGSSAAAAAAAASGPGGYGPENQGPSGPGGYGPGGPGSSAAAAAAAASGPGGYGPENQGPSGPGGYGPGGPGSSAAAAAAAASGPGGYGPENQGPSGPGGYGPGGPGSSAAAAAAAASGPGGYGPENQGPSGPGGYGPGGPGSSAAAAAAAASGPGGYGPENQGPSGPGGYGPGGPGSSAAAAAAAASGPGGYGPENQGPSGPGGYGPGGPGSSAAAAAAAASGPGGYGPENQGPSGPGGYGPGGPGSSAAAAAAAASGPGGYGPENQGPSGPGGYGPGGPGSSAAAAAAAASGPGGYGPENQGPSGPGGYGPGGPGSSAAAAAAAASGPGGYGPENQGPSGPGGYGPGGPGGGSGGRGDSPG
For B1, the Average σmax (N), pulling test on pig skin stripes, 35 mg/ml, 30 min incubation came out at 5.29 N and the average maximal adhesion strength compared with C16 (no RGD), pulling test on pig skin worked out at 80%.
